Reference: publication PMC12613623

Key:
[1] = target: T1, murine SIRT3 recombinant protein (mouse); assay: SPR; SIRT3 immobilised on a carboxyl sensor chip; ATP5O diluted in running buffer and injected from low to high concentrations; kinetics analysed with Trace Drawer
T1 sequence (Q8R104 whole entry, looked up): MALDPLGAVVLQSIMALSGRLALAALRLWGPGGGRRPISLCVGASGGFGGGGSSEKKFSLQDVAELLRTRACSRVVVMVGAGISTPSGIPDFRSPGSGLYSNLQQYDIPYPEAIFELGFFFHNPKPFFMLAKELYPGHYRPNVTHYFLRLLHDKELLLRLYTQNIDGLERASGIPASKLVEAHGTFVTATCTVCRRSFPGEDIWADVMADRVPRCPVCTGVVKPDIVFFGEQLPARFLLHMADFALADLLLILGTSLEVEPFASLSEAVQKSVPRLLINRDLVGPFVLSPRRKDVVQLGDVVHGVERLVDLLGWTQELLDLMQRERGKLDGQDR

[2] = target: T1, murine SIRT3 recombinant protein (mouse); assay: ITC; Nano ITC (TA Instruments); ATP5O titrated into a SIRT3-containing solution at 25 °C; NanoAnalyze

- Kd [1]: 0.0653 nM
- koff [1]: 5.54e-08 s⁻¹
- kon [1]: 850 M⁻¹ s⁻¹
- Kd [2]: 1310 nM
B1: murine ATP5O recombinant protein (natural protein)
chain: FAKLVRPPVQVYGIEGRYATALYSAASKEKKLDQVEKELLRVGQLLKDPKVSLAVLNPYIKRTVKVKSLNDITKREKFSPLTANLMNLLAENGRLGNTQGIISAFSTIMSVHRGEVPCTVTTASPLDDAVLSELKTVLKSFLSPNQILKLEIKTDPSIMGGMIVRIGEKYVDMSAKSKIQKLSKAMREML
